Assay results reported in patent publication US20190177366A1.
Square brackets hold non-standard residues; d marks the D form. * marks the point of attachment. hArg = N=C(N)NCCCC[C@H](N)C(=O)O; Pentanoyl = CCCCC(=O)*

Molecular target: PCSK9Δhelix (human) (UniProt Q8NBP7)
Assay: TR-FRET competition, Ab20 as competitor

Chain of PCSK9Δhelix (human) (Q8NBP7 31-152 limits assumed, stated change not applied, chain 1 of 2): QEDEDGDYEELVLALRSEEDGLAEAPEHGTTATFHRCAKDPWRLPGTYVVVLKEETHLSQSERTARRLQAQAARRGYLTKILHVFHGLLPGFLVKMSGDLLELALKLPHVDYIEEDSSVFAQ
Chain of PCSK9Δhelix (human) (Q8NBP7 other isoform, or with tags, fused parts or gaps mutant limits assumed, chain 2 of 2): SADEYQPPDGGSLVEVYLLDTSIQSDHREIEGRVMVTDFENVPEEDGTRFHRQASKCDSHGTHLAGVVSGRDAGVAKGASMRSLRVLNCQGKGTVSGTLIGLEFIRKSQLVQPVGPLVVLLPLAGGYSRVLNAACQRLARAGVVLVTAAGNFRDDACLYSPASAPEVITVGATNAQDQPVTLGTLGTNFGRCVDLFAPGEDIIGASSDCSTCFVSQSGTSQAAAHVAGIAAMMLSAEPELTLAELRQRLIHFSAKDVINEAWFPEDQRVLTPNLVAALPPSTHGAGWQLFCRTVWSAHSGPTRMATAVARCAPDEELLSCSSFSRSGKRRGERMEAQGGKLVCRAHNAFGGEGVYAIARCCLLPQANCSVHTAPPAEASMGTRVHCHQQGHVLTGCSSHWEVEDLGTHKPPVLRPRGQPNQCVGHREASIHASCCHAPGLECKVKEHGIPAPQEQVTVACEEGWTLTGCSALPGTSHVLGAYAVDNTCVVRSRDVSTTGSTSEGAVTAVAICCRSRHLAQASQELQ

Binder | IC50 [µM] | fold increase of inhibition against the arginine peptide (Compound 112) [fold]
Pentanoyl-WNLVRIGLLR-NH2 (SMILES CCCCC(=O)N[C@@H](Cc1c[nH]c2ccccc12)C(=O)N[C@@H](CC(N)=O)C(=O)N[C@@H](CC(C)C)C(=O)N[C@H](C(=O)N[C@@H](CCCNC(=N)N)C(=O)N[C@H](C(=O)NCC(=O)N[C@@H](CC(C)C)C(=O)N[C@@H](CC(C)C)C(=O)N[C@@H](CCCNC(=N)N)C(N)=O)[C@@H](C)CC)C(C)C) [Compound 111] | < 10 | –
Pentanoyl-WNLV[hArg]IGLTR-NH2 (SMILES CCCCC(=O)N[C@@H](Cc1c[nH]c2ccccc12)C(=O)N[C@@H](CC(N)=O)C(=O)N[C@@H](CC(C)C)C(=O)N[C@H](C(=O)N[C@@H](CCCCNC(=N)N)C(=O)N[C@H](C(=O)NCC(=O)N[C@@H](CC(C)C)C(=O)N[C@H](C(=O)N[C@@H](CCCNC(=N)N)C(N)=O)[C@@H](C)O)[C@@H](C)CC)C(C)C) [Compound 118] | – | 5
